This note sets out measurements from article PMC11601603.

This assay deals with Citrobacter sp. RHBSTW-00271 Ubl3 (Citrobacter sp. RHBSTW-00271). The assay is described as follows: SEC-MALS. A general note: SEC sorts molecules by how far they enter the pores of the column.

One may read the stoichiometry N as a count of units in the complex or per binding partner. Substance “Citrobacter sp. RHBSTW-00271 Ubl3 (domain or fragment)” came in with a stoichiometry N of 2.
